Test results taken from patent publication US20160264649A1.

Experiments:
Experiment in all cases: cell-based or functional assay
[1] = biological target: HIV-1 MGRM-AG-011 Env (HIV-1)
[2] = biological target: HIV-1 MGRM-F1-014 Env (HIV-1)
[3] = biological target: HIV-1 MGRM-F1-006 Env (HIV-1)
[4] = biological target: HIV-1 94UG114 Env (HIV-1)
[5] = biological target: HIV-1 92UG046 Env (HIV-1)
[6] = biological target: HIV-1 MGRM-AG-003 Env (HIV-1)
[7] = biological target: HIV-1 MGRM-D-022 Env (HIV-1)
[8] = biological target: HIV-1 MGRM-AG-012 Env (HIV-1)
[9] = biological target: HIV-1 MGRM-C-007 Env on pseudovirus (HIV-1)
[10] = biological target: HIV-1 MGRM-C-025 Env on pseudovirus (HIV-1)
[11] = biological target: HIV-1 MGRM-AG-001 Env (HIV-1)
[12] = biological target: HIV-1 APV-6 Env (HIV-1)
[13] = biological target: HIV-1 MGRM-D-002 Env (HIV-1)
[14] = biological target: HIV-1 92TH021 Env (HIV-1)
[15] = biological target: HIV-1 SC422661.8 (Acute) Env on pseudovirus (HIV-1)
[16] = biological target: HIV-1 JRFL Env on pseudovirus (HIV-1)
[17] = biological target: HIV-1 97ZA012 Env on pseudovirus (HIV-1)
[18] = biological target: HIV-1 92UG024 Env (HIV-1)
[19] = biological target: HIV-1 MGRM-C-006 Env on pseudovirus (HIV-1)
[20] = biological target: HIV-1 MGRM-F1-021 Env (HIV-1)
[21] = biological target: HIV-1 LAVI_C3 Env on pseudovirus (HIV-1)
[22] = biological target: HIV-1 NL43 Env (HIV-1)
[23] = biological target: HIV-1 TRJ0.58 (Acute) Env on pseudovirus (HIV-1)
[24] = biological target: HIV-1 MGRM-D-008 Env (HIV-1)
[25] = biological target: HIV-1 MGRM-D-029 Env (HIV-1)
[26] = biological target: HIV-1 MGRM-F1-012 Env (HIV-1)
[27] = biological target: HIV-1 MGRM-G-025 Env (HIV-1)
[28] = biological target: HIV-1 MGRM-F1-023 Env (HIV-1)
[29] = biological target: HIV-1 MGRM-C-017 Env on pseudovirus (HIV-1)
[30] = biological target: HIV-1 MGRM-G-013 Env (HIV-1)
[31] = biological target: HIV-1 CAAN.A2 (Acute) Env on pseudovirus (HIV-1)
[32] = biological target: HIV-1 MGRM-D-014 Env (HIV-1)
[33] = biological target: HIV-1 MGRM-C-009 Env on pseudovirus (HIV-1)
[34] = biological target: HIV-1 93MW959 Env on pseudovirus (HIV-1)
[35] = biological target: HIV-1 VLGCB3 Env on pseudovirus (HIV-1)
[36] = biological target: HIV-1 MGRM-C-015 Env on pseudovirus (HIV-1)
[37] = biological target: HIV-1 MGRM-F1-017 Env (HIV-1)
[38] = biological target: HIV-1 MGRM-AE-004 Env (HIV-1)
[39] = biological target: HIV-1 MGRM-C-004 Env on pseudovirus (HIV-1)
[40] = biological target: HIV-1 APV_6 Env on pseudovirus (HIV-1)
[41] = biological target: HIV-1 MGRM-C-013 Env on pseudovirus (HIV-1)
[42] = biological target: HIV-1 MGRM-AG-013 Env (HIV-1)
[43] = biological target: HIV-1 MGRM-G-019 Env (HIV-1)
[44] = biological target: HIV-1 IAVI-C18 Env (HIV-1)
[45] = biological target: HIV-1 94UG103 Env (HIV-1)
[46] = biological target: HIV-1 APV-17 Env (HIV-1)
[47] = biological target: HIV-1 92BR020 Env on pseudovirus (HIV-1)
[48] = biological target: HIV-1 MGRM-C-010 Env on pseudovirus (HIV-1)
[49] = biological target: HIV-1 MGRM-D-018 Env (HIV-1)
[50] = biological target: HIV-1 IAVI-C22 Env (HIV-1)
[51] = biological target: HIV-1 MGRM-D-020 Env (HIV-1)
[52] = biological target: HIV-1 MGRM-F1-010 Env (HIV-1)

For 2G12 (antibody), which IC50 (µg/ml), pseudovirus neutralization [1] is on record?
The IC50 (µg/ml), pseudovirus neutralization was greater than 50 µg/mL.

What about the IC50 (pseudovirus neutralization) [2] of the same substance?
Its IC50 (pseudovirus neutralization) is greater than 50 mg/L.

What about the IC50 (pseudovirus neutralization) [3] of the same substance?
The IC50 (pseudovirus neutralization) was greater than 50 mg/L.

What about the IC50 (µg/ml), pseudovirus neutralization [4] of the same substance?
Its IC50 (µg/ml), pseudovirus neutralization is 13.9 µg/mL.

And the IC50 (µg/ml), pseudovirus neutralization [5]?
The IC50 (µg/ml), pseudovirus neutralization was greater than 50 µg/mL.

And the IC50 (µg/ml), pseudovirus neutralization [6]?
Its IC50 (µg/ml), pseudovirus neutralization is greater than 50 µg/mL.

What about the IC50 (µg/ml), pseudovirus neutralization [7] of the same substance?
The IC50 (µg/ml), pseudovirus neutralization was greater than 50 µg/mL.

What about the IC50 (µg/ml), pseudovirus neutralization [8] of the same substance?
The IC50 (µg/ml), pseudovirus neutralization was 1.94 µg/mL.

What about the IC50 [9] of the same substance?
The IC50 was greater than 50 mg/L.

And the IC50 [10]?
Its IC50 is greater than 50 mg/L.

And the IC50 (µg/ml), pseudovirus neutralization [11]?
Its IC50 (µg/ml), pseudovirus neutralization is 0.69 µg/mL.

And the neutralization IC50 [12]?
Its neutralization IC50 is 5.3 mg/L.

What about the IC50 (µg/ml), pseudovirus neutralization [13] of the same substance?
The IC50 (µg/ml), pseudovirus neutralization was greater than 50 µg/mL.

What about the IC50 (µg/ml), pseudovirus neutralization [14] of the same substance?
Its IC50 (µg/ml), pseudovirus neutralization is greater than 50 µg/mL.

And the neutralization IC50 [14]?
The neutralization IC50 was greater than 50 mg/L.

What about the neutralization IC90 [14] of the same substance?
Its neutralization IC90 is greater than 50 mg/L.

What about the IC50 [15] of the same substance?
The IC50 was 0.84 mg/L.

And the IC50 [16]?
Its IC50 is 1.45 mg/L.

What about the IC50 [17] of the same substance?
The IC50 was greater than 50 mg/L.

What about the IC50 (µg/ml), pseudovirus neutralization [18] of the same substance?
The IC50 (µg/ml), pseudovirus neutralization was 0.42 µg/mL.

What about the neutralization IC50 [18] of the same substance?
The neutralization IC50 was 0.59 mg/L.

And the neutralization IC90 [18]?
The neutralization IC90 was 7.57 mg/L.

What about the IC50 [19] of the same substance?
Its IC50 is greater than 50 mg/L.

What about the IC50 (pseudovirus neutralization) [20] of the same substance?
The IC50 (pseudovirus neutralization) was 14.1 mg/L.

What about the IC50 [21] of the same substance?
The IC50 was greater than 50 mg/L.

What about the neutralization IC50 [22] of the same substance?
Its neutralization IC50 is 0.75 mg/L.

What about the neutralization IC90 [22] of the same substance?
Its neutralization IC90 is 15.8 mg/L.

And the IC50 [23]?
The IC50 was greater than 50 mg/L.

What about the IC50 (µg/ml), pseudovirus neutralization [24] of the same substance?
Its IC50 (µg/ml), pseudovirus neutralization is greater than 50 µg/mL.

What about the IC50 (µg/ml), pseudovirus neutralization [25] of the same substance?
Its IC50 (µg/ml), pseudovirus neutralization is greater than 50 µg/mL.

What about the IC50 (pseudovirus neutralization) [26] of the same substance?
The IC50 (pseudovirus neutralization) was 1.81 mg/L.

And the IC50 (µg/ml), pseudovirus neutralization [27]?
Its IC50 (µg/ml), pseudovirus neutralization is 31.9 µg/mL.

And the IC50 (pseudovirus neutralization) [28]?
Its IC50 (pseudovirus neutralization) is 9.23 mg/L.

What about the IC50 [29] of the same substance?
The IC50 was greater than 50 mg/L.

What about the IC50 (µg/ml), pseudovirus neutralization [30] of the same substance?
The IC50 (µg/ml), pseudovirus neutralization was greater than 50 µg/mL.

What about the IC50 [31] of the same substance?
Its IC50 is greater than 50 mg/L.

What about the IC50 (µg/ml), pseudovirus neutralization [32] of the same substance?
Its IC50 (µg/ml), pseudovirus neutralization is greater than 50 µg/mL.

And the IC50 [33]?
The IC50 was greater than 50 mg/L.

What about the IC50 [34] of the same substance?
The IC50 was greater than 50 mg/L.

What about the IC50 [35] of the same substance?
The IC50 was 7.9 mg/L.

What about the IC50 [36] of the same substance?
The IC50 was 1.75 mg/L.

What about the IC50 (pseudovirus neutralization) [37] of the same substance?
Its IC50 (pseudovirus neutralization) is greater than 50 mg/L.

What about the IC50 (µg/ml), pseudovirus neutralization [38] of the same substance?
The IC50 (µg/ml), pseudovirus neutralization was greater than 50 µg/mL.

What about the IC50 [39] of the same substance?
The IC50 was greater than 50 mg/L.

And the IC50 [40]?
The IC50 was 1.9 mg/L.

What about the IC50 [41] of the same substance?
The IC50 was greater than 50 mg/L.

What about the IC50 (µg/ml), pseudovirus neutralization [42] of the same substance?
Its IC50 (µg/ml), pseudovirus neutralization is 0.95 µg/mL.

And the IC50 (µg/ml), pseudovirus neutralization [43]?
Its IC50 (µg/ml), pseudovirus neutralization is 31 µg/mL.

What about the neutralization IC50 [44] of the same substance?
The neutralization IC50 was greater than 50 mg/L.

And the neutralization IC90 [44]?
The neutralization IC90 was greater than 50 mg/L.

And the neutralization IC50 [45]?
Its neutralization IC50 is greater than 50 mg/L.

What about the neutralization IC90 [45] of the same substance?
Its neutralization IC90 is greater than 50 mg/L.

What about the neutralization IC50 [46] of the same substance?
Its neutralization IC50 is greater than 50 mg/L.

What about the IC50 [47] of the same substance?
The IC50 was 4.84 mg/L.

And the IC50 [48]?
Its IC50 is greater than 50 mg/L.

What about the IC50 (µg/ml), pseudovirus neutralization [49] of the same substance?
Its IC50 (µg/ml), pseudovirus neutralization is 0.12 µg/mL.

What about the neutralization IC50 [50] of the same substance?
The neutralization IC50 was greater than 50 mg/L.

What about the neutralization IC90 [50] of the same substance?
The neutralization IC90 was greater than 50 mg/L.

And the IC50 (µg/ml), pseudovirus neutralization [51]?
Its IC50 (µg/ml), pseudovirus neutralization is greater than 50 µg/mL.

What does the source list for 1496_C09 (PG9) (TCN-109) (antibody)?
IC50 (µg/ml), pseudovirus neutralization [1]: 0.01 µg/mL; IC50 (pseudovirus neutralization) [2]: 0.01 mg/L; IC50 (pseudovirus neutralization) [3]: 1.45 mg/L; IC50 (µg/ml), pseudovirus neutralization [5]: 0.64 µg/mL; IC50 (µg/ml), pseudovirus neutralization [6]: 9.71 µg/mL; IC50 (µg/ml), pseudovirus neutralization [8]: 1.37 µg/mL; IC50 [9]: 0.09 mg/L; IC50 [10]: 0.17 mg/L; IC50 (µg/ml), pseudovirus neutralization [11]: 8.83 µg/mL; neutralization IC50 [12]: 0.0869 mg/L; neutralization IC90 [12]: 1.96 mg/L; IC50 (µg/ml), pseudovirus neutralization [13]: 0.027 µg/mL; IC50 (µg/ml), pseudovirus neutralization [14]: 0.09 µg/mL; neutralization IC50 [14]: 0.111 mg/L; neutralization IC90 [14]: 1.99 mg/L; IC50 [15]: 0.79 mg/L; IC50 [17]: 1.27 mg/L; IC50 (µg/ml), pseudovirus neutralization [18]: 1.91 µg/mL; IC50 [19]: 0.23 mg/L; IC50 [21]: 1.45 mg/L; IC50 [23]: 0.43 mg/L; IC50 (µg/ml), pseudovirus neutralization [24]: 6.86 µg/mL; IC50 (pseudovirus neutralization) [26]: 0.01 mg/L; IC50 [29]: 1.52 mg/L; IC50 [31]: 5.67 mg/L; IC50 [34]: 0.04 mg/L; IC50 [36]: 0.5 mg/L; IC50 (µg/ml), pseudovirus neutralization [38]: 0.01 µg/mL; IC50 [39]: 1.18 mg/L; IC50 [40]: 0.12 mg/L; IC50 (µg/ml), pseudovirus neutralization [42]: 0.23 µg/mL; IC50 (pseudovirus neutralization) [52]: 0.03 mg/L; IC50 (µg/ml), pseudovirus neutralization [43]: 0.67 µg/mL; neutralization IC50 [44]: 0.0535 mg/L; neutralization IC90 [44]: 0.866 mg/L; neutralization IC50 [45]: 0.173 mg/L; neutralization IC90 [45]: 3.37 mg/L; neutralization IC50 [46]: 26.4 mg/L; IC50 [48]: 12.4 mg/L; neutralization IC50 [50]: 24.9 mg/L; IC50 (µg/ml), pseudovirus neutralization [51]: 2.03 µg/mL
